Measured values taken from article PMC8579703.

Target: neonatal Fc Receptor, FcRn (UniProt P55899)
Assay: SPR

In the case of “ACE2-IgG4-Fc fusion construct 3 (ACE2 Q18-G732 H374N/H378N fused to IgG4-Fc S228P) (from UniProt Q9BYF1 18-732)”, the Kd is reported as 3.9 µM.
“ACE2-IgG4-Fc fusion construct 1 (ACE2 Q18-G732 wildtype fused to IgG4-Fc S228P) (from UniProt Q9BYF1 18-732)” was tested, and the Kd was 2.9 µM.
